Laboratory results taken from article PMC5102385, “Structure of a Spumaretrovirus Gag Central Domain Reveals an Ancient Retroviral Capsid” (PLoS Pathogens, 2016).

What was measured:
[1] = molecular target: the molecule itself; assay: AUC; multi-speed sedimentation equilibrium at varying protein concentration, 20 mM Tris-HCl pH 8, 150 mM NaCl, 0.5 mM TCEP, interference data, global fit with SEDPHAT; monomer to dimer
[2] = molecular target: the molecule itself; assay: as above; remark: listed apart in the source

B1: PFV-Gag CtDCEN (domain or fragment)
chain: RTHGTFPMHQLGNVIKGIVDQEGVATAYTLGMMLSGQNYQLVSGIIRGYLPGQAVVTALQQRLDQEIDNQTRAETFIQHLNAVYEILGLNARGQSIR
notes: Gag of Prototype foamy virus (PFV), residues 381-477 (CtDCEN), amplified from plasmid pcziGag4, in pET22b (NdeI/XhoI); also called PFV-CtDCEN; source: E. coli Rosetta 2 (DE3), purified (Ni-NTA, SEC on Superdex 75)
Kd [1]: 900 nM | Ka [2]: 1.1e+06 M⁻¹ | stoichiometry N [2]: 2
